This note sets out measurements from US20040052794, “p53 regulatory protein called RB18A and uses thereof” (published 2004).

One data set concerns the target T1, GST-RB18A-N2 (Homo sapiens, UniProt Q15648 SEQ:1234-1566).
T1 chain: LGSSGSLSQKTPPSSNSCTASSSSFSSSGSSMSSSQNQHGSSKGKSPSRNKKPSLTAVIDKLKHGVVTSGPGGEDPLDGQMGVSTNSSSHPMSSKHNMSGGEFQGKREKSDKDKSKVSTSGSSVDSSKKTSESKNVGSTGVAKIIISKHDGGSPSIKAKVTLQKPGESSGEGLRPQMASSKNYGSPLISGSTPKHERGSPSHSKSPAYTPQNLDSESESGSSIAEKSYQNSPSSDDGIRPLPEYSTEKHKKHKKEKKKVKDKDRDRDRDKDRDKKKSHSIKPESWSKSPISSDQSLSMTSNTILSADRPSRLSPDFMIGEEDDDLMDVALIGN
Briefly: EMSA; no direct interaction with p53 oligonucleotide. The following applies: tags: N-terminal GST; label: 32P; EcoRI-compatible ends. As for the experimental part:
(§1) Part A: four μl of in vitro translated products of wild-type p53 (lanes 2, 5-10) or Luciferase (lanes 3-4) cDNAs were incubated for 20 min at room temperature with 0.2 μg of PAb421 (lane 5) or PAb1801 (lane 6) moAbs or with 1 μg of GST-RB18A-N2 (lanes 4, 7, 8 and 9) or GST-RB18A-Nl1 (lane 10) proteins. Then, a radiolabeled oligonucleotide (0.4 ng per lane) containing the consensus DNA binding site of p53 was added for 20 min at 4° C.
(§2) EMSA was performed as follows. Translated product (4 μl) was pre-incubated for 20 min at room temperature with 1 μg of GST-RB18A fusion protein or 0.2 μg of moAb in a final reaction volume of 14 μl of buffer A (25 mM Tris, pH 7.4, 80 mM KCl, 0.1 mM EDTA, 1 mM DTT and 10% glycerol). Then, 6 μl of buffer B (80 mM KCl, 16.6 mM MgCl₂ and 3 mg/ml BSA) containing 0.4 ng of labeled oligonucleotide and 0.5 μg of poly(dl-dC) were added and incubation was carried out for 20 min at 4° C. Reaction products were run for 15 min at 200 V on a 4% polyacrylamide gel containing 0.4×Tris-Borate-EDTA (90 mM Tris, 64.6 mM Borate, 2.5 mM EDTA, pH 8.3).

The target of another data set is p53 wild-type (Homo sapiens, UniProt P04637 P04637:1-393). Description: competition; non-specific oligo did not inhibit the complex with n1. The note with it: tags: none; plasmid pSP65-p53H8; chain copies: 4. The protocol: as §1, §2
p53 wild-type, sequence (P04637 whole entry, one chain of several): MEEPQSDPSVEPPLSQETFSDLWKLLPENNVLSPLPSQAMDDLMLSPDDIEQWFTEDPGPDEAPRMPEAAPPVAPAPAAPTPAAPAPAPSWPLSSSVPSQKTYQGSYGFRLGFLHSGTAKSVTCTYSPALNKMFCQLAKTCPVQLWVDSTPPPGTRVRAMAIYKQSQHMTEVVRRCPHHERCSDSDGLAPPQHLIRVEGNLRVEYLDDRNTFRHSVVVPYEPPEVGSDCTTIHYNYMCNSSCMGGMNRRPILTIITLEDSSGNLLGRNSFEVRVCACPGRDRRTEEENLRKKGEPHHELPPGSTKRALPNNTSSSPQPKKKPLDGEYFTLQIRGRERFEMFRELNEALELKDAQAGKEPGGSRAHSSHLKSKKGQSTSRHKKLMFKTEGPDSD

B1: PG p53 consensus oligonucleotide (dsDNA)
DNA 1: AATTCAGACATGCCTAGACATGCCTG
DNA 2: CAGGCATGTCTAGGCATGTCTGAATT
B1: the binding result with GST-RB18A-N2 is “no binding”.

B2: TL non-specific competitor (dsDNA)
DNA 1: TATGTCTAAGGGACCTGCGGTTGGCATTGATCTTG
DNA 2: CAAGATCAATGCCAACCGCAGGTCCCTTAGACATA
In the case of B2, in the data set with p53 wild-type, the binding result is “no binding”.
